Legend:
U87 glioma cells = assay: Matrigel cell invasion, U87 glioma cells; assay type: cell-based, human; details: mAb 2 μg, 6 h
Description: Cell invasion. Matrigel invasion assay was performed using modified Boyden chambers with polycarbonate Nucleopore membrane (Corning, Corning, N.Y.), essentially as described (17). Briefly, filters (6.5 mm in diameter, 8 μm pore-size) were coated with Matrigel (30 μl); Cells (2×10^5) in 100 μl of serum-free medium were seeded in triplicate on the upper part of each chamber, and the lower compartment was filled with 600 μl medium supplemented with 10% FCS. After incubation for 5 h at 37° C. in a 5% CO2 incubator, non-invading cells on the upper surface of the filter were wiped with a cotton swab, and migrated cells on the lower surface of the filter were fixed, stained with 0.5% crystal violet (Sigma) and counted by examination of at least seven microscopic fields.
FIG. 5A. Cell invasion. Cal-27 tongue carcinoma (left panels) and U87 glioma cells (right panels) (2×10^5) were plated onto Matrigel-coated filters in the presence of mouse IgM/IgG (upper panels), mAb 9E8 (2 μg; second left and middle panels). Invading cells adhering to the lower side of the membrane were visualized after 6 h. […] Lungs were harvested after 18 days, photographed (lower panel) and the number of metastatic lesions was counted (upper panel; p=0.001, 0.0006, 0.0001 for Con vs. Ab 1453, Con vs. mAb 9E8 and Con vs. SST0001, respectively). […]

Raji-luciferase cells = assay: Raji-luciferase lymphoma, tail vein inoculation, bone marrow growth by IVIS imaging; assay type: in vivo, human; details: mAb 600 μg/mouse every other day, IVIS
Description: (§1) Tumorigenicity. Luciferase-labelled CAG myeloma (5×10^6) or Raji lymphoma (1×10^6) cells were injected into the tail vein of NOD/SCID mice (n=5). Mice were treated with PG545 (20 mg/kg, once weekly), mAb 9E8 (600 μg/mouse) every other day starting one day following cell inoculation and tumor growth was examined by IVIS imaging. At termination, mice were sacrificed, the backbones were excised, fixed in formalin and following de-calcification with 10% EDTA solution were embedded in paraffin and subjected to histological and immunohistochemical analyses essentially as described (Weissmann et al, 2016, Proc Natl Acad Sci USA 113:704-709). Dose of 25-30 mg/kg (i.e., 500-600 μg mAb/mouse) is typical in cancer restraining experiments (Van Looy T, et al. 2015, Transl Oncol 8(2):112-118).
IVIS imaging. Bioluminescent imaging of the luciferase-expressing tumors was performed with a highly sensitive, cooled charge coupled device (CCD) camera mounted in a light-tight specimen box (IVIS; Xenogen Corp., Waltham, Mass.). Briefly, mice were injected intraperitoneally with D-luciferin substrate at 150 mg/kg, anesthetized and placed onto a stage inside the light-tight camera box, with continuous exposure to isoflurane (EZAnesthesia, Palmer, Pa.). Light emitted from the bioluminescent cells was detected by the IVIS camera system with images quantified for tumor burden using a log-scale color range set at 5×10^4 to 1×10^7 and measurement of total photon counts per second (PPS) using Living Image software (Xenogen) (Weissmann et al, 2016, Proc Natl Acad Sci USA 113:704-709).
FIG. 4A. Raji-luciferase cells (1×10^6) were injected into the tail vein of NOD/SCID mice (n=5). Mice were treated with PG545 (20 mg/kg once a week) starting one day after cell inoculation and IVIS imaging was applied to quantify tumor load. […] NOD/SCID mice (n=5) were inoculated (iv) with Raji-luciferase cells and mice were treated with mAb 9E8 (600 μg/mouse every other day) (FIG. 4C) and tumor growth was evaluated by IVIS imaging (left panels). Quantification of luciferase signals is shown graphically in the right lower panel.

CAG myeloma cells = assay: CAG-luciferase myeloma, tail vein inoculation, tumor burden by IVIS imaging; assay type: in vivo, human; details: mAb 600 μg/mouse every other day
Description: as §1, with “Dose of 25-30 mg/kg (i.e., 500-600 μg mAb/mouse) is typical in cancer restraining experiments (Van Looy T, et al. 2015, Transl Oncol 8(2):112-118).” left out
IVIS imaging. […] Light emitted from the bioluminescent cells was detected by the IVIS camera system with images quantified for tumor burden using a log-scale color range set at 5×10^4 to 1×10^7 and measurement of total photon counts per second (PPS) using Living Image software (Xenogen) (Weissmann et al, 2016, Proc Natl Acad Sci USA 113:704-709).
FIG. 6A. […] Tumor growth was evaluated by IVIS imaging (left panels). Quantification of luciferase signals is shown graphically in the right panel. […] Bone marrow was harvested from C57Bl/6 mice, cells were collected by centrifugation and heparanase activity was determined as described under ‘Materials and Methods’ (left panel). […]

[1] = tested on: LM2-4 human breast carcinoma cells; assay: LM2-4 breast carcinoma experimental lung metastasis; assay type: in vivo; details: mAb 500 μg/mouse with the cells, lungs after 18 days
Description: Experimental metastasis. B16 BL6 mouse melanoma (2×10^5) or LM2-4 human breast cancer cells (2×10^6) were injected into the tail vein of C57/BL mice or SCID/Beige mice (respectively) together with the indicated compound, essentially as described (Hostettler N, et al. 2007, FASEB J 21(13):3562-3572). Lungs were harvested 18 days thereafter and metastases occurrence was determined following fixation by gross inspection and histology (Weissmann et al, 2016, Proc Natl Acad Sci USA 113:704-709).
FIG. 5A. Cell invasion. Cal-27 tongue carcinoma (left panels) and U87 glioma cells (right panels) (2×10^5) were plated onto Matrigel-coated filters in the presence of mouse IgM/IgG (upper panels), mAb 9E8 (2 μg; second left and middle panels). Invading cells adhering to the lower side of the membrane were visualized after 6 h. The number of invading cells per high power field is shown graphically at the lower panels. FIG. 5B, FIG. 5C. Tumor metastasis. FIG. 5B Mouse B16 melanoma cells (2×10^5) were inoculated into the tail vein of C57Bl/6 mice (n=7) together with rabbit IgG (300 μg; Con), Ab #1453 (250 μg), mAb 9E8 (500 μg) or SST0001 (400 μg). Lungs were harvested after 18 days, photographed (lower panel) and the number of metastatic lesions was counted (upper panel; p=0.001, 0.0006, 0.0001 for Con vs. Ab 1453, Con vs. mAb 9E8 and Con vs. SST0001, respectively). […]

B1: mAb 9E8: monoclonal IgM raised against KKDC peptide (Lys158-Asn171) of heparanase; VH SEQ ID NO: 7, VL SEQ ID NO: 8 (antibody)
VH: EVKLLESGGGLVQPGGSLKLSCAASGFDFSRYWMSWVRQAPGKGLEWIGEINPDSSTINYTPSLKDKFIISRDNAKNTLYLQMSKVRSEDTALYYCARRGYEGNYAMDYWGQGTSVTVSSESQSFPNVFPLVSCESPLSDKNLVAMGCLAR
VL: DIVMTQAAPSVPVTPGESVSISCRSSKSLLHSNGNTYLYWFLQRPGQSPQLLIYRMSNLASGVPDRFSGSGSGTAFTLRISRVEAEDVGVYYCMQHLEYPFTFGSGTKLEIKRADAAPTVSIFPPSSEQLTSGGASVVCFL
modifications: IgM constant regions
U87 glioma cells
  cell invasion: inhibitory effect
Raji-luciferase cells
  decrease of Raji cell growth (luciferase signal): 2-3 fold
CAG myeloma cells
  decrease in tumor burden (luciferase signal): 2-3 fold
[1]
  experimental lung metastasis: inhibitory effect
